For orientation: EC50 means the concentration that produces a half-maximal response. A low value points to a more potent agent. For orientation: Kd means a measure of binding affinity in units of concentration. High values mean a looser complex, low ones a tighter complex. By koff is commonly meant the first-order rate constant of dissociation. Higher therefore signals a short-lived complex. A word on the kon: it is the second-order rate constant of association.

Data on 2 molecules can be found in patent US20260125455A1 (CLEVELAND CLINIC FOUNDATION, published 2026).

The target of assay [1] is T1, human complement protein C6 (human, UniProt P13671 22-934).
T1 construct: also called human C6; C6 antigen
Briefly: C6-binding ELISA, A650 nm; sample 'C6-depleted human serum' (28 days at 37 C). The procedure: (§1) For the serum stability assessment, samples of the purified candidate antibodies are normally incubated in mouse, human and cynomolgus serum at 37 C for 28 days and then tested in an antigen-binding ELISA. Since the anti-C6 antibodies are expected to bind to both human and cynomolgus C6 but not mouse C6, we anticipated that incubating in human or cynomolgus sera would reduce ELISA binding due to occupation of the antibody binding sites by C6 protein from the sera. Therefore, the chimeric and humanized antibodies were tested with human and mouse sera and with human sera from which the C6 protein has been depleted. The C6-binding ELISA was then used to compare the binding abilities of the C601 antibodies that had been incubated in the 3 different sera to antibody samples that were incubated in PBS at 37 C or kept at 4 C (non-incubated).
(§2) The Uncle instrument (Unchained Labs) was used to monitor unfolding via intrinsic fluorescence and aggregation by static light scattering across a temperature gradient to obtain melting temperatures (Tₘ). […] Isoelectric points were determined by capillary isoelectric focusing using a PA800+ (Beckman Coulter). […]
On the technique in general: ELISA stands for enzyme-linked immunosorbent assay.

Assay [2] has as its target T1, human complement protein C6. Put plainly: ELISA, C6-coated wells, large-scale purified antibody.
Assay [3] has the same target. Put plainly: C6-binding ELISA, A650 nm; sample 'PBS, non-incubated' (kept at 4 C). As to the method: The C6-binding ELISA was then used to compare the binding abilities of the C601 antibodies that had been incubated in the 3 different sera to antibody samples that were incubated in PBS at 37 C or kept at 4 C (non-incubated).
Binding ELISAs used Nunc Maxisorp 384-well plates, wells coated with C6, C5b,6 complex or C5 (Complement Technology Inc, TX) and goat anti-human IgG (Fab specific) peroxidase secondary antibodies (Sigma-Aldrich, A0293) for detection. For the thermal stability assay, IgG supernatants were diluted to their EC₈₀ concentration, incubated at different temperatures for 10 min and C6 binding measured by ELISA with the binding signal plotted against temperature. Kinetics of C6 binding were measured by capturing antibodies from supernatant samples using Protein G biosensors and performing a 20 min association step with 2.5 nM C6 and a 20 min dissociation step using the Octet RED96. […] Binding of C6 measured using a three-fold concentration series of C6 from 0.03 nM-25 nM and data were fitted using a 1:1 model in two independent experiments.
The Uncle instrument (Unchained Labs) was used to monitor unfolding via intrinsic fluorescence and aggregation by static light scattering across a temperature gradient to obtain melting temperatures (Tₘ). […] Isoelectric points were determined by capillary isoelectric focusing using a PA800+ (Beckman Coulter).

The target is the same in assay [4]. Briefly: BLI (Octet), full kinetics, C6 0.16-10 nM, 1:1 fit. The procedure: For two of the best performing antibodies, C601HFKC4 HuG4K (aka 3713) and C601HFKI HuG4K, a full kinetic experiment was run using seven concentrations of C6 (0.16-10 nM) and association and dissociation steps of 20 min. The datasets were processed by subtracting the no antigen controls and the data were fitted to a 1:1 binding model. Binding curves giving Req/Rₘₐₓ ratios>90% or showing poor fitting were excluded from analysis.

The target is the same in assay [5]. Put plainly: C6-binding ELISA, A650 nm; sample 'PBS, non-incubated' (kept at 4 C). The procedure: as §1, §2
This is another data set of the same source.

Assay [6] has the same target. Briefly: ELISA, expression supernatant, anti-human IgG (Fab-specific) detection. The procedure:
The chimeric molecules, MoC601 HuG4K and MoC601 HuG1KFab, were tested for C6 binding in the form of expression supernatants. In this experiment, the human molecules were detected with an HRP-conjugated goat anti-human kappa chain reagent, which gave relative low signals. However, the binding of both chimeric molecules to C6 was confirmed. The EC₅₀ value for MoC601 HuG4K (0.43 nM) was higher than that of the mouse antibody (0.07 nM), though this was lower than in previous experiments. A further experiment was performed to find a more suitable anti-human antibody detection reagent. MoC601 HuG4K from expression supernatant was detected with three different secondary antibodies. Both anti-human IgG Fc-specific and Fab-specific detection gave higher signals than the anti-kappa chain reagent but the Fc-specific detection yielded a very low EC₅₀ (0.03 nM).

Assay [7] shares this target. Briefly: C6-binding ELISA, A650 nm; sample 'C6-depleted human serum' (28 days at 37 C). As to the method: as §1, with “The C6-binding ELISA was then used to compare the binding abilities of the C601 antibodies that had been incubated in the 3 different sera to antibody samples that were incubated in PBS at 37 C or kept at 4 C (non-incubated).” left out
Binding ELISAs used Nunc Maxisorp 384-well plates, wells coated with C6, C5b,6 complex or C5 (Complement Technology Inc, TX) and goat anti-human IgG (Fab specific) peroxidase secondary antibodies (Sigma-Aldrich, A0293) for detection. For the thermal stability assay, IgG supernatants were diluted to their EC₈₀ concentration, incubated at different temperatures for 10 min and C6 binding measured by ELISA with the binding signal plotted against temperature. Kinetics of C6 binding were measured by capturing antibodies from supernatant samples using Protein G biosensors and performing a 20 min association step with 2.5 nM C6 and a 20 min dissociation step using the Octet RED96. […]
The source holds these as a separate data set.

Assay [8] has the same target. Put plainly: BLI (Octet), antibody on Protein G biosensors, 1:1 fit, experiment 2.

T1 sequence (P13671 22-934 limits assumed): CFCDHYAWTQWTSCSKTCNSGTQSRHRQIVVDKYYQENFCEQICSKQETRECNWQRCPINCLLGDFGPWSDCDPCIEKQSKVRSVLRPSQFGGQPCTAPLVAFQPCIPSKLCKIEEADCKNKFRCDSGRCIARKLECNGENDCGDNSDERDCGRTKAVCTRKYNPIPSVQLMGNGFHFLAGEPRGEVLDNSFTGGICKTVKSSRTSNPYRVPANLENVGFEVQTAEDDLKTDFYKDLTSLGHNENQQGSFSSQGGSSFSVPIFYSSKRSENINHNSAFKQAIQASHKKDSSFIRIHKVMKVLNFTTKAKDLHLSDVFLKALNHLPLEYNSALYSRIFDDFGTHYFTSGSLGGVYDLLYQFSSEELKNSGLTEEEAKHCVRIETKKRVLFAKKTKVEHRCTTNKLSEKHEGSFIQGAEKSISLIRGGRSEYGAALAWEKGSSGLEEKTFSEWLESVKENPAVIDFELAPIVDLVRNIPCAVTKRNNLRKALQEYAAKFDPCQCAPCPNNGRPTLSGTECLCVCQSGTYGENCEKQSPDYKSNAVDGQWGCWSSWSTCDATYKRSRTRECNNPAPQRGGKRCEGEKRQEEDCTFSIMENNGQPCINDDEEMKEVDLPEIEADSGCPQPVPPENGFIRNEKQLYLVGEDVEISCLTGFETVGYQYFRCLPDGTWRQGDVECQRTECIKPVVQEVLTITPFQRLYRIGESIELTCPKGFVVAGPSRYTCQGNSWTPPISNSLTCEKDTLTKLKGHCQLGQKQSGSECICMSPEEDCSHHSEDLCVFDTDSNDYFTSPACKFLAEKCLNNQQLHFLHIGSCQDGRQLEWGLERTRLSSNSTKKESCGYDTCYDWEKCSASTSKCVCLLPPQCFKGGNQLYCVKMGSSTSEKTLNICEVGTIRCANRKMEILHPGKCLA

B1: C601HFKC4 HuG4K (antibody, human IgG4 S228P, kappa)
heavy: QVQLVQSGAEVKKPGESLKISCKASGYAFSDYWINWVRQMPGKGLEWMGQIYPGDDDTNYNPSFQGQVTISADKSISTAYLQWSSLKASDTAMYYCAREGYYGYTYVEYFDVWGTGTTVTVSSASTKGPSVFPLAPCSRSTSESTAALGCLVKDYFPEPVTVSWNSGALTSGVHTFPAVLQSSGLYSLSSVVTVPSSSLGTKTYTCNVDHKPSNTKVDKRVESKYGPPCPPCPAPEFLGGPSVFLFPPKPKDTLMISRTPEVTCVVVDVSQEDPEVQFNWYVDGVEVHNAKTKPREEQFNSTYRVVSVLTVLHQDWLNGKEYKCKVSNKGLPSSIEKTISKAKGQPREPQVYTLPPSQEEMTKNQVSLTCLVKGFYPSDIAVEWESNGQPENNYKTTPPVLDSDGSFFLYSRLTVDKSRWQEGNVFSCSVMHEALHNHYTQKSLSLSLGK
light: QIVLTQSPATLSLSPGERATLSCRASSSVSYLHWYQQKPGQSPRLWIYDTSKRATGIPARFSGSGSGTDYTLTISSLEPEDFAVYYCQQWTSNPLTFGQGTKLEIKRTVAAPSVFIFPPSDEQLKSGTASVVCLLNNFYPREAKVQWKVDNALQSGNSQESVTEQDSKDSTYSLSSTLTLSKADYEKHKVYACEVTHQGLSSPVTKSFNRGEC
notes: also called 3713; clone 3713
Regarding B1, the results for the EC50 in assay [1], in assay [2] and in assay [3] were 0.17 nM, 0.19 nM and 0.17 nM, respectively. Besides, in assay [4], binding was put at a Kd of 0.11 nM. In addition, the koff in assay [4] turned out to be 0.00013 s⁻¹. The kon in assay [4] stood at 1.19e+06 M⁻¹ s⁻¹.

B2: MoC601 HuG4K (chimeric C601 antibody) (antibody, human IgG4 S228P, kappa, V domains shown)
VH: QVQLQQSGAELVKPGASVKISCKASGYAFSDYWMNWVKQRPGKGLEWIGQIYPGDDDTNYNGKFKGKATLTADKSSSTAYMQLSSLTSEDSAVYFCAREGYYGYTYVEYFDVWGTGTTVTVSS
VL: QIVLTQSPAIMSVSPGEKVTLTCSASSSVSYMHWYQQKSGTSPKRWIYDTSKLASGVPARFSGSGSGTSYSLTISSMEAEDAATYYCQQWTSNPLTFGAGTKLELRR
notes: also called chimeric antibody; chimeric 1C9
For B2, the EC50 in assay [5] amounted to 0.18 nM; in assay [6] it was 0.3 nM; in assay [7], 0.15 nM. Besides, the equilibrium dissociation constant (Kd) in assay [8] was found to be 0.35 nM. For the same molecule, the koff in assay [8] worked out at 0.00024 s⁻¹. The kon in assay [8] was 690000 M⁻¹ s⁻¹.
